{"source": "paper doi:10.1101/2025.02.17.637997", "about": "“Phosphorylation-State Modulated Binding of HSP70: Structural Insights and Compensatory Protein Engineering” (bioRxiv, 2025)", "key": {"[1]": {"test_system": "HSP70 steady-state levels in HEK-293 cells", "assay": "Cycloheximide chase of HSP70 steady-state levels, HEK-293", "assay_type": "cell-based", "conditions": "Flag immunoblot, representative, Fig. S1", "method": "HEK293 and COS-7 cells were acquired from the UNC Lineberger Comprehensive Cancer Center Tissue Culture Facility. Cultures were maintained in Dulbecco’s Modified Eagle Medium with 10% fetal bovine serum at 37 °C and 5% CO2. Using the manufacturers’ instructions, X-tremeGENE 9 was used to transfect cells with plasmid DNA except for NanoBiT constructs, in which case we used Lipofectamine 3000 (Thermo Fisher Scientific). Where indicated, twenty-four hours post-transfection, cells were treated with 20 μM MG-132 (Selleck Chemicals) for 6 h or 100 μM cycloheximide (Sigma-Aldrich) for the stated duration.\nSamples were collected in a lysis buffer composed of 50 mM Tris-HCl (pH 7.4), 150 mM NaCl, 2 mM EDTA, and 1% Triton X-100, supplemented with 1X Halt protease and phosphatase inhibitor (Thermo Scientific). The samples were then sonicated and combined with Laemmli sample buffer (Bio-Rad). The lysates were resolved on 4–15% TGX Stain-Free gels (Bio-Rad) and transferred to PVDF membranes (Bio-Rad). The membranes were blocked in 5% milk and incubated with primary antibodies (Table S3) overnight at 4°C. Following this, HRP-conjugated secondary antibodies (Cell Signaling Technology) were applied. Detection was performed using Lumigen ECL Ultra (Lumigen, tma-100), and the blots were imaged with the ChemiDoc Imaging System (BioRad)."}, "[2]": {"test_system": "HSC70", "assay": "Cell-free ubiquitination of HSC70 by CHIP", "assay_type": "biochemical, human", "conditions": "100 nM Uba1, 1 μM UBE2D2, 200 nM Hsc70, 100 μM Ub, 1 μM CHIP, pH 8.0, 15 min, room temperature; three experiments; p = 0.0774; Fig. 1K", "method": "Ubiquitination assays were conducted using recombinant human HSC70, fluorescently tagged on its N-terminus. All assay components except ubiquitin were premixed on ice in a BSA-containing buffer (20 mM HEPES, pH 8.0; 200 mM NaCl; 0.5 mg/mL BSA). Reactions were initiated by adding ubiquitin and were allowed to proceed at room temperature unless specified otherwise. The reactions contained a final concentration of 100 nM Uba1, 1 μM UBE2D2, 200 nM Hsc70, 100 μM Ub, 5 mM MgCl2-ATP, and 1 μM CHIP. The reactions proceeded for 15 minutes before being quenched with SDS loading buffer. The quenched samples were separated by molecular weight via SDS-PAGE in non-reducing conditions using GenScript SurePAGE 4–12% gels. The CHIP-dependent ubiquitination of Hsc70 was visualized and quantified through fluorescent scanning on an Amersham Typhoon 5."}, "[3]": {"target": "T1, CHIP-TPR (21–154) (UniProt Q9UNE7 21-154)", "T1 construct": "also called extended TPR domain of CHIP", "T1 sequence (looked up)": "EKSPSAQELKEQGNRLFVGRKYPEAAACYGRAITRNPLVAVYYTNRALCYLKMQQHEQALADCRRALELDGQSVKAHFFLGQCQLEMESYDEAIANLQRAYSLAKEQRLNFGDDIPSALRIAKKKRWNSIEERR", "assay": "fluorescence polarisation; 20 nM N-terminally FITC-labelled peptide, recombinant CHIP constructs at increasing concentrations, 30 minutes at room temperature; one site/total binding fit with Bmax constrained to 100", "conditions": "both partners purified"}, "[4]": {"target": "T2, recombinant full-length CHIP-G132N (UniProt Q9UNE7 1-303, G132N)", "T2 construct": "CHIP, full-length recombinant protein with G132N", "T2 sequence (looked up)": "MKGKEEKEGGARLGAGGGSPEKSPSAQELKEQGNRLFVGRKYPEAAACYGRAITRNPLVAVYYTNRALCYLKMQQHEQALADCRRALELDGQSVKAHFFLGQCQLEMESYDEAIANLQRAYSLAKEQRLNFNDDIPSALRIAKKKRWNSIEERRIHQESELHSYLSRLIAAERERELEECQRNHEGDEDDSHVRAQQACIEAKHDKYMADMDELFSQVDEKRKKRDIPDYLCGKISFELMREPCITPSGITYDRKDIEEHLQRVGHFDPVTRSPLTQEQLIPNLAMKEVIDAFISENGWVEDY", "assay": "fluorescence polarisation; 20 nM N-terminally FITC-labelled peptide, recombinant CHIP constructs at increasing concentrations, 30 minutes at room temperature; one site/total binding fit with Bmax constrained to 100", "conditions": "both partners purified"}, "[5]": {"target": "T3, recombinant full-length CHIP-WT (UniProt Q9UNE7 1-303)", "T3 sequence (looked up)": "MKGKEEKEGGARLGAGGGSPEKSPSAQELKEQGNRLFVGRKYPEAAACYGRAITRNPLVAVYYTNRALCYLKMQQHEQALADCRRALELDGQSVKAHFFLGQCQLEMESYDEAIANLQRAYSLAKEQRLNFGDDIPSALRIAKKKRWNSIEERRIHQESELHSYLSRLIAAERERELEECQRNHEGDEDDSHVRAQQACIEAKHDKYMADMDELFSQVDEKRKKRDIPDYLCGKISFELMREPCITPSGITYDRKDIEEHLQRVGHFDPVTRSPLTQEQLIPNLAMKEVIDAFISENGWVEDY", "assay": "fluorescence polarisation; 20 nM N-terminally FITC-labelled peptide, recombinant CHIP constructs at increasing concentrations, 30 minutes at room temperature; one site/total binding fit with Bmax constrained to 100", "conditions": "both partners purified"}, "[6]": {"target": "recombinant full-length CHIP-G132N (UniProt Q9UNE7 1-303, G132N)", "assay": "FP"}, "[7]": {"target": "T4, recombinant full-length CHIP-WT (UniProt Q9UNE7 1-303)", "T4 chain": "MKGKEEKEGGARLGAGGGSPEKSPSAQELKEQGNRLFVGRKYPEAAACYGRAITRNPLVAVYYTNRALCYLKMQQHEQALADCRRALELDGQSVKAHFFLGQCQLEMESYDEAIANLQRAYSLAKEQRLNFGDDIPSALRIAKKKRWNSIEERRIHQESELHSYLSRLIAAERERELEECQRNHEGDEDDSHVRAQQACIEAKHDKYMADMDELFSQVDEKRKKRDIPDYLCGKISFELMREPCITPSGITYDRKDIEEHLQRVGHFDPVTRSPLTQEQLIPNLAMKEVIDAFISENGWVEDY", "assay": "FP"}, "[8]": {"target": "T1, CHIP-TPR (21–154)", "assay": "crystal structure; CHIP-TPR co-crystallised with peptide at a 3:1 peptide:protein ratio, sitting drop vapor diffusion at room temperature; 0.2 M lithium sulfate, 0.1 M Tris-HCl, pH 8.5, 30% PEG 4000", "conditions": "both partners purified"}, "[9]": {"target": "T5, CHIP-TPR N65S (UniProt Q9UNE7 21-154, N65S)", "T5 construct": "CHIP, extended TPR domain, residues 21-154, with N65S; control of the BLI experiment; also called CHIP-N65S", "T5 sequence (looked up)": "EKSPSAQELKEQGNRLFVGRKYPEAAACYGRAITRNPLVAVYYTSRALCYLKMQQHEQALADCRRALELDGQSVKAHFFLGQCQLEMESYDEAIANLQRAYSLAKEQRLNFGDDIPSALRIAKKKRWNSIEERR", "assay": "BLI; BLItz, biotin peptides loaded on streptavidin sensors, TPR protein constructs at 1 to 25 μM; 20 mM HEPES, 150 mM NaCl, 5 mM β-mercaptoethanol, pH 7.2; Kd=koff/kon", "conditions": "both partners purified"}, "[10]": {"target": "T6, CHIP-TPR G132S (UniProt Q9UNE7 21-154, G132S)", "T6 construct": "CHIP, extended TPR domain, residues 21-154, with G132S; site modification control of the BLI experiment; also called CHIP-G132S", "T6 sequence (looked up)": "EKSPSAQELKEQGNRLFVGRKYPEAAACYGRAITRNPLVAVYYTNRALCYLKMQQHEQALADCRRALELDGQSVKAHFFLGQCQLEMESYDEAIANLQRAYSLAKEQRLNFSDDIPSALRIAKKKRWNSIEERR", "assay": "BLI; BLItz, biotin peptides loaded on streptavidin sensors, TPR protein constructs at 1 to 25 μM; 20 mM HEPES, 150 mM NaCl, 5 mM β-mercaptoethanol, pH 7.2; Kd=koff/kon", "conditions": "both partners purified"}}, "note": "Square brackets hold non-standard residues; d marks the D form. Ends that are not written are not given here. * marks the point of attachment. FITC = O=C1OC2(c3ccc(O)cc3Oc3cc(O)ccc32)c2ccc(NC(=S)*)cc21; Biotin = O=C1N[C@H]2[C@H](CS[C@H]2CCCCC(=O)*)N1; pT = C[C@@H](OP(=O)(O)O)[C@H](N)C(=O)O; Ahx = NCCCCCC(=O)O", "data": [{"molecule": "HSP70-T636A: phospho-null version of HSP70", "values": [{"measurement": "percent change of HSP70 level from time 0", "setting": "[1]; cycloheximide +MG132, 6 h (column from layout)", "result": "+31%"}, {"measurement": "percent change of HSP70 level from time 0", "setting": "[1]; cycloheximide, 6 h, without MG132 (column from layout)", "result": -84, "unit": "%"}]}, {"molecule": "CHIP-WT: wild-type CHIP, E3 ligase co-chaperone (protein) MKGKEEKEGGARLGAGGGSPEKSPSAQELKEQGNRLFVGRKYPEAAACYGRAITRNPLVAVYYTNRALCYLKMQQHEQALADCRRALELDGQSVKAHFFLGQCQLEMESYDEAIANLQRAYSLAKEQRLNFGDDIPSALRIAKKKRWNSIEERRIHQESELHSYLSRLIAAERERELEECQRNHEGDEDDSHVRAQQACIEAKHDKYMADMDELFSQVDEKRKKRDIPDYLCGKISFELMREPCITPSGITYDRKDIEEHLQRVGHFDPVTRSPLTQEQLIPNLAMKEVIDAFISENGWVEDY", "values": [{"measurement": "ubiquitination of HSC70", "setting": "[2]", "result": "not different"}]}, {"molecule": "{FITC-Ahx}-GSGP[pT]IEEVD (tracer of the fluorescence polarisation assay; also called pEEVD; phosphorylated EEVD peptide; source: synthetic peptide (Lifetein or Genscript))", "note": "[N-FITC-Ahx-GSGP(pT)IEEVD]", "values": [{"measurement": "binding result", "setting": "[3]", "result": "binds"}, {"measurement": "binding result", "setting": "[4]", "result": "binds"}, {"measurement": "binding result", "setting": "[5]", "result": "binds"}, {"measurement": "Kd", "setting": "[6]", "result": 96, "unit": "µM"}, {"measurement": "Kd", "setting": "[7]", "result": 46, "unit": "µM"}]}, {"molecule": "GPTIEEVD (C-terminal tail of HSP70 (T636 is the third residue); used for co-crystallisation with CHIP-TPR; also called HSP70 peptide; HSP70 tail; source: synthetic peptide (Lifetein or Genscript))", "note": "[unphosphorylated HSP(C)70 peptide GPTIEEVD]", "values": [{"measurement": "binding result", "setting": "[8]", "result": "binds"}]}, {"molecule": "Biotin-GSGSGP[pT]IEEVD (loaded on streptavidin sensors for BLI; also called biotin-pEEVD; pEEVD; source: synthetic peptide, bought: Lifetein)", "note": "[amino-terminal biotin-labeled pT-HSP70 tail peptide biotin-GSGSGP(pT)IEEVD]", "values": [{"measurement": "binding result", "setting": "[9]", "result": "binds"}, {"measurement": "binding result", "setting": "[10]", "result": "binds"}]}, {"molecule": "Biotin-GSGSGPTIEEVD (C-terminal tail of HSP70; loaded on streptavidin sensors for BLI; also called biotin-EEVD; source: synthetic peptide, bought: Lifetein)", "note": "[amino-terminal biotin-labeled HSP70 tail peptide biotin-GSGSGPTIEEVD]", "values": [{"measurement": "binding result", "setting": "[9]", "result": "binds"}, {"measurement": "binding result", "setting": "[10]", "result": "binds"}]}, {"molecule": "GP[pT]IEEVD (used for co-crystallisation with CHIP-TPR; also called pEEVD; pT-HSP70 peptide; source: synthetic peptide (Lifetein or Genscript))", "note": "[phosphorylated HSP(C)70 peptide GP(pT)IEEVD]", "values": [{"measurement": "binding result", "setting": "[8]", "result": "binds"}]}]}
